Data taken from US20040248807A1 (OREGON HEALTH AND SCIENCE UNIVERSITY, published 2004).
Square brackets hold non-standard residues; d marks the D form. Ends that are not written are not given here. pY = N[C@@H](Cc1ccc(OP(=O)(O)O)cc1)C(=O)O

Biological target: Human α-thrombin (human, UniProt P00734 328-622)
Test: fluorescence polarization competition against fluoresceinated γ′408-427 phosphorylated peptide, 2 µM α-thrombin

binding result: no binding
B1: γ′ amino-terminal deletion peptide 417-427, phosphotyrosine at 418 and 422 (peptide)
peptide: E[pY]DSL[pY]PEDDL
